Tests used:
[1] = target: T1, G. gallus Rad51 (G. gallus, UniProt P37383 1-339, limits assumed); assay: yeast two-hybrid, growth on -ADE -HIS
T1 construct: Y2H fusion in yeast
T1 sequence (looked up): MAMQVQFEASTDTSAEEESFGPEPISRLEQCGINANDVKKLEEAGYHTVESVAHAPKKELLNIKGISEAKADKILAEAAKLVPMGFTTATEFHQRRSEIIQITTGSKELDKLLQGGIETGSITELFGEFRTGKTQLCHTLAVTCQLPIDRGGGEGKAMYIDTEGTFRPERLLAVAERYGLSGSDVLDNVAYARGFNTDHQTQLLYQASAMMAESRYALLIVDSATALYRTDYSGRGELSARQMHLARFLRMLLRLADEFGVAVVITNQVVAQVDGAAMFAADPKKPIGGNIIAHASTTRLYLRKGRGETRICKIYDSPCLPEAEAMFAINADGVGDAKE
Method: (§1) RAD51-binding peptides were tested for ability to bind RAD51 of several different species using a “conventional” Y2H assay, where interaction between the two-hybrid pair drove expression of ADE2 and HIS genes. In this Y2H assay the two-hybrid pair was RAD51 and the compound 5 peptide sequence (SEQ ID NO.:5), so that cells having the interaction would survive (+) and cells not having the interaction would die (−) on selective media (−ADE, −HIS).

[2] = target: T2, S. cerevisiae Rad51 (S. cerevisiae, UniProt P25454 1-400, limits assumed); assay: yeast two-hybrid, growth on -ADE -HIS
T2 construct: Y2H fusion in yeast
T2 sequence (looked up): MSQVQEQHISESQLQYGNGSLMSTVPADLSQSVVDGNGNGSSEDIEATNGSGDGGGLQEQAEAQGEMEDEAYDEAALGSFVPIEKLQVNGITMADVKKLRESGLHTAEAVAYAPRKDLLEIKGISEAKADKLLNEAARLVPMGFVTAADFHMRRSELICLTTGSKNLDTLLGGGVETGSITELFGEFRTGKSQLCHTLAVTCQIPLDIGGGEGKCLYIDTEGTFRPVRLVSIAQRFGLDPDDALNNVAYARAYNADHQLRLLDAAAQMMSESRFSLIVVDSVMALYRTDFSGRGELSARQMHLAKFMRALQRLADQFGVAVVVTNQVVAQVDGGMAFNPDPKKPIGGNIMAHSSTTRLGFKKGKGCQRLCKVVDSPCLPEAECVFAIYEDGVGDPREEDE
Method: as §1

[3] = target: T3, S. pombe Rad51 (S. pombe, UniProt P36601 1-365, limits assumed); assay: yeast two-hybrid, growth on -ADE -HIS
T3 construct: Y2H fusion in yeast
T3 sequence (looked up): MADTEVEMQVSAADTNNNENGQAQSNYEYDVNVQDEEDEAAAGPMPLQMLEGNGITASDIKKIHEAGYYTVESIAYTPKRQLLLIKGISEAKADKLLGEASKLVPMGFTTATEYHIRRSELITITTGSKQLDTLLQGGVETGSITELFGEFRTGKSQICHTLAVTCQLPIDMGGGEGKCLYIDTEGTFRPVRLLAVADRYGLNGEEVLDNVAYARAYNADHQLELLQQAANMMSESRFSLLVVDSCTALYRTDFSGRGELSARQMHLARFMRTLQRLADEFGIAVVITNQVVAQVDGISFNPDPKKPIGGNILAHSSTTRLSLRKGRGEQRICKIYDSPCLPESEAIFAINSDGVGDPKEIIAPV
Method: as §1

[4] = target: T4, S. cerevisiae Rad51 (1-278) + H. sapiens Rad51 (218-339) (S. cerevisiae; H. sapiens, UniProt P25454 1-278); assay: yeast two-hybrid, RAD51 hybrid construct
T4 construct: range 1-278; Y2H fusion in yeast; also called cerevisiae-sapiens hybrid construct of RAD51
T4 sequence: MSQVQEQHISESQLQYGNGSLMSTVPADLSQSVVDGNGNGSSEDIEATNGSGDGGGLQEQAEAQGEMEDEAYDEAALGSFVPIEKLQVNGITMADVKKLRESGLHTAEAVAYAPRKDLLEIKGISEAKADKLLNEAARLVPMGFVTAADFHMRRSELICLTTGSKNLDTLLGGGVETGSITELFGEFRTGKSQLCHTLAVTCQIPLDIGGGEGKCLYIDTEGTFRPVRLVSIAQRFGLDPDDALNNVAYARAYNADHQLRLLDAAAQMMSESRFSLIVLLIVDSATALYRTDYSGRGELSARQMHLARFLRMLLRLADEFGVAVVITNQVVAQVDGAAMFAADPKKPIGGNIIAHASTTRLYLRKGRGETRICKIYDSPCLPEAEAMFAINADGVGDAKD

B1: compound 5 peptide sequence (SEQ ID NO.:5) (peptide)
peptide: KRRRRRRRKRLGVRLRVSRML
[1]
  binding result: binds
[2]
  binding result: no binding
[3]
  binding result: binds
[4]
  binding result: no binding
